Positions count from the first letter of the chain named. Where two headings read alike, the source gives them in different places.
Columns and labels:
Assay in all cases: cell-based or functional assay
[1] = molecular target: T1, recombinant human trimeric ARG2 enzyme (construct not given) (human, UniProt P78540 23-354)
T1 sequence (looked up): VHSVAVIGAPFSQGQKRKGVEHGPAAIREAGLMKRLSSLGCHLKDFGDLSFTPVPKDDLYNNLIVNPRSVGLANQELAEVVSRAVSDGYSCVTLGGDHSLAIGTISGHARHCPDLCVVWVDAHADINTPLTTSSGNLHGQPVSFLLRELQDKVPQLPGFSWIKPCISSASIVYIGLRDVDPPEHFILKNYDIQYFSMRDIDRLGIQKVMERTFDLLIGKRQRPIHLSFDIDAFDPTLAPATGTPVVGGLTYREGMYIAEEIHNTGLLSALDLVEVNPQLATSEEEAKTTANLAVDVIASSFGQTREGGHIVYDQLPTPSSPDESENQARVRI

[2] = molecular target: T2, THP-1 lysate derived human trimeric ARG2 (human, UniProt P78540 23-354, limits assumed)
T2 sequence (looked up): T1 sequence (looked up)

[3] = molecular target: T2, THP-1 lysate derived human trimeric ARG2; remark: listed apart in the source
[4] = molecular target: T1, recombinant human trimeric ARG2 enzyme …; remark: listed apart in the source

B1: C0021061 recombinant human IgG1 (antibody, V domains shown)
VH: EVQLLESGGGLVQPGGSLRLSCAASGFTFSSYAMSWVRQAPGKGLEWVSAKPTDAGSTYYADSVKGRFTISRDNSKNTLYLQMNSLRAEDTAVYYCARLRADLGLYMDLWGRGTLVTVSS
VL: QSVLTQPPSVSAAPGQKVTISCSGSSSNIGNHYVSWYQQLPGTAPKLLIYNTVYPKSGIPDRFSGSKSGTSATLGITGLQTGDEADYYCGTWDSSLSALVFGGGTKLTVL
- EC50, In Presence of rhARG2 (T cell proliferation) [1]: 149 nM
- Maximum % Proliferation, In Presence of rhARG2 [1]: 110%
- THP-1 lysate ARG2 EIA IC50 [2]: 5.81 nM
- IC50 (M) THP-1 ARG2 (healthy human plasma) [3]: 2.9e-09 M
- IC50 (M) THP-1 ARG2 (no plasma) [3]: 6.79e-09 M
- EC50, In Presence of rhARG2 (T cell proliferation) [4]: 113 nM
- Maximum % Proliferation, In Presence of rhARG2 [4]: 83%

B2: C0021133 recombinant human IgG1 (antibody, V domains shown)
VH: EVQLLESGGGLVQPGGSLRLSCAASGFTFRYDHHVWVRQAPGKGLEWVSAISGSGGSTYYADSVKGRFTISRDNSKNTLYLQMNSLRAEDTAVYYCARLRADLGLYMDLWGRGTLVTVSS
VL: B1 VL with I20V, N51D, V53T, Y54V, P55L, K56S, S94E, S95L, L96T, A98N
- THP-1 lysate ARG2 EIA IC50 [2]: 7.38 nM
- IC50 (M) THP-1 ARG2 (healthy human plasma) [3]: 3.7e-09 M
- IC50 (M) THP-1 ARG2 (no plasma) [3]: 6.68e-09 M
- EC50, In Presence of rhARG2 (T cell proliferation) [4]: 101 nM
- Maximum % Proliferation, In Presence of rhARG2 [4]: 73%

B3: C0021022 recombinant human IgG1 (antibody, V domains shown)
VH: EVQLLESGGGLVQPGGSLRLSCAASGFTFSSYAMSWVRQAPGKGPEWVSAISGFSPYYADSVKGRFTISRDNSKNTLYLQMNSLRAEDTAVYYCARLRADLGLYMDLWGRGTLVTVSS
VL: B1 VL with N51D, T52N, V53S, Y54E, P55R, K56P
- IC50 (M) THP-1 ARG2 (healthy human plasma) [3]: 2.71e-09 M
- IC50 (M) THP-1 ARG2 (no plasma) [3]: 5.81e-09 M
- EC50, In Presence of rhARG2 (T cell proliferation) [4]: 132 nM
- Maximum % Proliferation, In Presence of rhARG2 [4]: 77%

B4: C0021139 recombinant human IgG1 (antibody, V domains shown)
VH: B2 VH with R30Q, H33Y, H34Q
VL: B1 VL with N51D, T52N, V53S, Y54E, P55R, K56T, S94E, S95L, L96T, A98N
- IC50 (M) THP-1 ARG2 (healthy human plasma) [3]: 2.02e-09 M
- IC50 (M) THP-1 ARG2 (no plasma) [3]: 5.75e-09 M
- EC50, In Presence of rhARG2 (T cell proliferation) [4]: 111 nM
- Maximum % Proliferation, In Presence of rhARG2 [4]: 67%

B5: C0021065 recombinant human IgG1 (antibody, V domains shown)
VH: B3 VH with K74R
VL: B1 VL with N51D, V53D, Y54H, P55M, K56A
- IC50 (M) THP-1 ARG2 (healthy human plasma) [3]: 2.98e-09 M
- IC50 (M) THP-1 ARG2 (no plasma) [3]: 5.99e-09 M
- EC50, In Presence of rhARG2 (T cell proliferation) [4]: 136 nM
- Maximum % Proliferation, In Presence of rhARG2 [4]: 87%

B6: C0021144 recombinant human IgG1 (antibody, V domains shown)
VH: B2 VH with H33Y
VL: QSVLTQPPSVSAAPGQKVTVSCSGSSSNIGNHHVSWYQQLPGTAPKLLIYDTTVLSSGVPDRFSGSKSGTSATLGITGLQTGDEADYYCGTWDELTSNLVFGGGTKLTVL
- THP-1 lysate ARG2 EIA IC50 [2]: 10.9 nM

B7: C0021180 recombinant human IgG1 (antibody, V domains shown)
VH: B2 VH with D32E, H33V, H34A, V35A, S54P, G55I, G56P, S57K, T58G
VL: QSVLTQPPTVSAAPGRKVTISCSGSSSNIGDHHVSWYQQLPGAAPKLLIYDTDHMASGIPDRFSGSRSGTSATLGITGLQTGDEADYYCGTWDSSLSALVFGGGTKLTVL
- EC50, In Presence of rhARG2 (T cell proliferation) [1]: 137 nM
- Maximum % Proliferation, In Presence of rhARG2 [1]: 91%
- THP-1 lysate ARG2 EIA IC50 [2]: 4.59 nM

B8: C0021177 recombinant human IgG1 (antibody, V domains shown)
VH: B2 VH with D32E, H33V, H34A, V35A, S54P, G55A, G56P, S57K, T58G
VL: B6 VL with V3E, S9T, V10A, V20I, H33Y, V59I
- EC50, In Presence of rhARG2 (T cell proliferation) [1]: 86 nM
- Maximum % Proliferation, In Presence of rhARG2 [1]: 84%
- THP-1 lysate ARG2 EIA IC50 [2]: 5.17 nM

B9: C0021155 recombinant human IgG1 (antibody, V domains shown)
VH: B2 VH with A23E, H33Y, S63P
VL: B6 VL with Q1R, V20I, H33Y, V59I, K106R
- THP-1 lysate ARG2 EIA IC50 [2]: 9.64 nM

B10: C0021181 recombinant human IgG1 (antibody, V domains shown)
VH: B2 VH with Q13R, G26E, H33Y, G66S
VL: B6 VL with T19A, N31S, H33Y, T52N, T53S, V54E, L55R, S56T, V59I, K106R
- THP-1 lysate ARG2 EIA IC50 [2]: 6.93 nM

From patent publication US20220403048A1 (CANCER RESEARCH TECHNOLOGY, published 2022)
